Experimental data as given in PMC8133395 (Cell reports, 2021).

Molecular target: T1, EBOV sGP (Mayinga) (Zaire ebolavirus, Mayinga, GenBank …, UniProt P60170)
T1 construct: source: FreeStyle-293-F, transiently transfected, purified (Strep-Tactin, SEC)
Experiment: ELISA
Details: both partners purified

T1 sequence (P60170 33-314): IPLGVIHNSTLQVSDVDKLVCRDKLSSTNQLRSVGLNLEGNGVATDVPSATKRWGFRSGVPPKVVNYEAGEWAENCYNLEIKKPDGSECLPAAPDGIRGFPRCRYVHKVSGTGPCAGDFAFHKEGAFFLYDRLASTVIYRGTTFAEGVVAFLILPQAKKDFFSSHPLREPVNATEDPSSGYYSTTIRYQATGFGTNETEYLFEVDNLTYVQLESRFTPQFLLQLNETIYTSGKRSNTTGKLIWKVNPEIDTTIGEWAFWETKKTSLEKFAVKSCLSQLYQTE

B1: EBOV-548 (antibody, V domains shown)
VH: QVQVEESGGGVVQPGGSLRLSCAASGFMFSNYGMHWVRQAPGKGLEWMAFIRYDDSKKFYADSVKGRFTISRDNSKNTLYLQMNSLRAEDTALYYCAKELLQVYTSAWGEGHSYYYALDVWGLGTAVTVSS
VL: DIQMTQSPSSVSASVGDRVTITCRASQDISNWLAWYQQKPGKAPELLIYTASILQSGVSSRFSGSGSGTDFTLTISSLQPEDSATYYCQQGKSFPYTFGQGTKLEIK
- binding result: binds
